Measured values: US20240026407A1, “MODIFICATION OF SAPONINS” (GLAXOSMITHKLINE BIOLOGICALS SA, priority 2020, published 2024)

What was measured:
[1] = Example 10: deglucosylation of saponins in crude bark extract (50%) using WT and engineered glucosidases G1 to G5; format: biochemical, Quillaja saponaria; conditions: 7 h, 50% CBE, 35 degC; for % Right Peak: starting CBE 26; for % Left Peak: starting CBE 30; for % Middle Peak: starting CBE 44
Protocol: Lyophilised powders from clarified cell lysate expressing glucosidases (from Example 8 WT glucosidase and engineered glucosidase polypeptides G1 to G5) and rhamnosidases (from Example 9 WT rhamnosidase and engineered rhamnosidase polypeptides R1 to R5) were dissolved in 200 mM sodium acetate aqueous solution at pH 5.8 to prepare the enzyme solutions at 4 fold the final reaction concentration as shown in Tables 19 and 20.
Each glucosidase solution was combined with an equal volume of 200 mM sodium acetate aqueous solution at pH 5.8 and separately with an equal volume of 200 mM sodium acetate aqueous solution at pH 5.8 containing 2 mg/ml rhamnosidase R5. This is a sufficient loading of rhamnosidase to effect complete hydrolysis of the relevant rhamnose moiety within 4 hours.
CBE was adjusted to pH of 6.0 to 6.2 with 2M sodium hydroxide and an equal volume added to the enzyme solution to prepare the reaction mix (i.e. 50% CBE concentration in reaction mix) and the concentration of glucosidase and/or rhamnosidase is shown in Tables 19 and 20. The reaction mix was heated to 35 degC for the time indicated in Tables 19 and 20, after which the reaction was quenched by addition of an equal volume of MeCN containing 2% acetic acid and shaken at room temperature for 10 mins prior to centrifugation (10 min, 4 degC) to remove particulates. Samples were analysed by UV HPLC using method of Experiment 4-4.
The change in composition of the Left, Middle and Right peaks is shown in Tables 19 and 20. The composition changes by the action of the enzymes depending on the presence or absence of the partner enzyme. The extent of reaction is proportional to the enzyme concentration and the reaction time under these conditions. The tables show data for enzyme concentrations and the reaction times providing for equivalent extents of reaction. The improvement resulting from the mutations introduced for each variant is equal to the fold change in enzyme concentration×time (i.e. fold improvement=(enzyme concentration×time) for preceding variant÷(enzyme concentration×time) for later variant). A cumulative fold improvement over the original enzyme variant is calculated by the product of the individual fold improvements.

[2] = Example 8: screening of glucosidase variants for deglycosylation of saponins in crude bark extract (FIOP); format: biochemical, Quillaja saponaria; conditions: screen temp 20, pH 6, lysate loading 2.50%, CBE loading 80%, 100 mM Potassium phosphate, Rham Present
Protocol: Libraries of genetic variants encoding mutations in the wild type Modestobacter marinus glucosidase (SEQ ID No. 262) were prepared using molecular biology techniques, enzymes were prepared linked to an N-terminally located His-tag. Single monoclonal colonies were grown in 400 ul of expression medium and protein expressed. Cell pellets were lysed in 200 ul of the relevant buffer (Table 16)
Lysate was diluted appropriately in the relevant buffer to allow a lysate loading of the indicated % loading (1% loading corresponds to use of 2 ul original lysate in a 200 ul reaction). In some experiments a rhamnosidase was also present during the screening reaction (and also in controls, negating any impact on results).
Crude bark extract (CBE) obtained by aqueous extraction of Quillaja saponaria and containing at least 2.80 mg/ml QS-21 (by HPLC-UV). The pH of CBE was adjusted to pH 6 by dropwise addition of 2M NaOH with stirring. The relevant concentration of the relevant glucosidase was added. The appropriate relative volume of pH 6 CBE (160 ul (for 80%) or 150 ul (for 75%)) was added to each well of the reaction plate. The reaction plate was sealed and incubated at the relevant temperature with shaking overnight for between 18 and 22 hours.
The reaction plate was quenched by adding 200 uL of MeCN (2% AcOH, 1 mg/mL hexanophenone) to each well of the plates. The quenched reaction plate was re-sealed and incubated at 20 deg C. with shaking for 10 min. The reaction plate was then centrifuged (10 min, 4 degC).
200 uL was transferred from each well of the quenched plate to the corresponding wells of a fresh 96 well plate and sealed. The plate was analysed by UV HPLC with the method below:
A negative control (a lysate not expressing test enzymes) and a positive control (expressing the parent comparator—wild type or previous variant as appropriate). Fold improvement over parent (FIOP) for the glucosidase (shorter method) is calculated as follows:
% right peak=100*right peak area/(right peak area+left peak area)
Average % right peak area is calculated for negative controls (per plate) and subtracted from all wells to give the increase in % right peak for each well above average negative control Average increase in % right peak is calculated for positive controls per plate
FIOP=observed increase in % right peak divided by average positive control increase

[3] = glucosidase 0.78 mg/ml + rhamnosidase R5 0.5 mg/ml
[4] = glucosidase 0.78 mg/ml, no rhamnosidase

B1: Variant G3: engineered glucosidase polypeptide, variant of Modestobacter marinus glucosidase SEQ ID No. 262 (protein)
chain: MNPASSTRTDTMTDTTARTDSRLTDALAALSLEQKVQLLTGRDYWNTWPIEEIGLRRILVSDGPSGVRGEVWDERDPSLNLPSATALASAWDPDIARRYGAAAAVEARRKGVDVVLGPTINLHRSPLGGRHFEAFSEDPVLTAELAAAYVTGVQDNGVGATPKHYVANDFETDRFTVDVRADERTLRELYLLAFEKAVTEARAWLVMSAYNGINGATATENDLLETPLNSEWGFDGVVVSDWTAVRSLESARSSQDLVMPGPVGPWGDALVEAVRTGAIDESVVDRKVLRILTLAQRVGALEGSPAIDPVWVEDGVALAREAAVEGTVLLENRDELPWDATSLRKVAVIGNNAAAAMTQGGGSANVLPEYTVSPLDGVRAALPDAEVSYSLGAVVQDGLVELPLAELTNPVTGGPGLRARFLTADGAELFGEDRRKSVLVYQGGDAPIAAAATYELTARWTPTESQTVRLGFFCFGAAQLYVDGELLVESDLQPSGTDLGAAFMNPLTASAEVELVAGKPVDVRLVHDLSAKEGFAAHALFLQLGTEPAEVDEDALIAEAAEAAEAADVVLVVVGTNSIVESEGYDRESLSLPGRQDDLVRAVVAANPRTVVLVNAGAPVLLPWRDDVAALLLGWFGGQEFGNAVADVLLGVAEPGGRLPTTWPAAEADVPVLSCTPVDGVVEYTEGIHIGYRAWLRSGATPAYWFGSGQGYTCVELTGVEAPSRARPGEIVTVSVEVANRGERDGKQVVQVYAEKPDSTVDRPVRWLVGSAPVRVPAGQTAQVEVAVPTRYLAHWAGGWQYEPGVYRLRVGTTAVELPLETTLEVSA
modifications: Seq ID No. 262 with mutations T365N, R357M, A473F, L474C, I475F, F44Y, F442Q
[1]; [3]
  % change in Left Peak: −31%
  % change in Middle Peak: −79%
  % change in Right Peak: 270%
  Cumulative Fold improvement in primary enzyme loading × time: 64
  Fold improvement in primary enzyme loading × time: 2.0
  % Right Peak: 70%
  % Left Peak: 21%
  % Middle Peak: 9%
[1]; [4]
  % change in Left Peak: −19%
  % change in Middle Peak: −50%
  % change in Right Peak: 206%
  Cumulative Fold improvement in primary enzyme loading × time: 64
  Fold improvement in primary enzyme loading × time: 2.0
  % Right Peak: 53%
  % Left Peak: 24%
  % Middle Peak: 22%
[2]; estimate
  Cumulative FIOP (cf WT): 125
[2]; fold improvement over parent
  FIOP: 2.5
